From US20080306007
Residue numbers refer to the chain shown, from its start.

T1: endophilin I (native, from rat brain lysate or synaptosomes), O35179
T1 chain: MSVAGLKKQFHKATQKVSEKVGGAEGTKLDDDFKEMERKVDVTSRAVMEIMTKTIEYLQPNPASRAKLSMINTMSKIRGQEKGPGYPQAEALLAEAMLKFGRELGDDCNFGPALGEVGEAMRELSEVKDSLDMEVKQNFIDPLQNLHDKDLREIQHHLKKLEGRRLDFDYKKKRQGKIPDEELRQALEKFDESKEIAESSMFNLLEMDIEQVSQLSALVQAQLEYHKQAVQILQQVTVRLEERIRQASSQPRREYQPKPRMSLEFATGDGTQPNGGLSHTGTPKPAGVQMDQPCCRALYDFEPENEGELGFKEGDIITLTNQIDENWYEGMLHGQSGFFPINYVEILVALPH

B1: DynI-PB2-GFP (protein)
chain: MGNRGMEDLIPLVNRLQDAFSAIGQNADLDLPQIAVVGGQSAGKSSVLENFVGRDFLPRGSGIVTRRPLVLQLVNSTTEYAEFLHCKGKKFTDFEEVRLEIEAETDRVTGTNKGISPVPINLRVYSPHVLNLTLVDLPGMTKVPVGDQPPDIEFQIRDMLMQFVTKENCLILAVSPANSDLANSDALKIAKEVDPQGQRTIGVITKLDLMDEGTDARDVLENKLLPLRRGYIGVVNRSQKDIDGKKDITAALAAERKFFLSHPSYRHLADRMGTPYLQKVLNQQLTNHIRDTLPGLRNKLQSQLLSIEKEVDEYKNFRPDDPARKTKALLQMVQQFAVDFEKRIEGSGDQIDTYELSGGARINRIFHERFPFELVKMEFDEKELRREISYAIKNIHGIRTGLFTPDLAFEATVKKQVQKLKEPSIKCVDMVVSELTSTIRKCSEKLQQYPRLREEMERIVTTHIREREGRTKEQVMLLIDIELAYMNTNHEDFIGFANAQQRSNQMNKKKTSGNQDEILVIRKGWLTINNIGIMKGGSKEYWFVLTAENLSWYKDDEEKEKKYMLSVDNLKLRDVEKGFMSSKHIFALFNTEQRNVYKDYRQLELACETQEEVDSWKASFLRAGVYPERVGDKEKASETEENGSDSFMHSMDPQLERQVETIRNLVDSYMAIVNKTVRDLMPKTIMHLMINNTKEFIFSELLANLYSCGDQNTLMEESAEQAQRRDEMLRMYHALKEALSIIGDINTTTVSTPMPPPVDDSWLQVQSVPAGEESPTSSPTPQRRAPAVPPARPGSRGPAPGPPPAGSALGGAPPVPSRPGASPDPFGPPPQVPSRPNRAPPGVPSRSGQASPSRPESPRPPFDL
B2: DynI^dmE-GFP (protein)
chain: B1 chain with E772R, E773R, S774E, S778E
B3: DynI-3B-GFP (protein)
chain: B1 chain with E772R, E773R, P793A
B4: DynI^dmA-GFP (protein)
chain: B1 chain with E772R, E773R, S774A, S778A

Tests used:
[1] = molecular target: syndapin I (native, from rat brain lysate or synaptosomes)
syndapin I (native, from rat brain lysate or synaptosomes), sequence (chain, as listed by the source): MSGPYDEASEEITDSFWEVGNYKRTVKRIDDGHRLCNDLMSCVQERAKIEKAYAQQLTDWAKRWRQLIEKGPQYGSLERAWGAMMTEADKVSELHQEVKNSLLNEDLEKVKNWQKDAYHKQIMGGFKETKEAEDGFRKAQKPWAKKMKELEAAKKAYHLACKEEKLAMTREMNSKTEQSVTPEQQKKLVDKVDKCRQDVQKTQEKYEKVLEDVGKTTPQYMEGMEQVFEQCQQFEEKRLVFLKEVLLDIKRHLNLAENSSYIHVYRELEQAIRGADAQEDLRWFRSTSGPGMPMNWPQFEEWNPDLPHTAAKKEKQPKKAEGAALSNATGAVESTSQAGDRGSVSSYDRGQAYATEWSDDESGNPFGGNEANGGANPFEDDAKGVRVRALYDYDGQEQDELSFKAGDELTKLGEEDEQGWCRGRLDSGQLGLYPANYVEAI

[2] = molecular target: T1, endophilin I (native, from rat brain …)

| Protein | total SV recycling pool (FM4-64) in transfected CGNs [1] | further results |
| --- | --- | --- |
| B1 | – | total synaptic recycling pool (FM4-64) in transfected CGNs [1]: 59.5±4.3% of control for DynI-PB2-GFP |
| B2 | 64.4±6.2% of control | – |
| B3 | – | total synaptic recycling pool (FM4-64) in transfected CGNs [2]: 56.8±4.4% for DynI-3B-GFP |
| B4 | 28±3.5% of control | – |
